Experimental data published in patent US20130338214.

Molecular target: GST-labeled ROR1 (intracellular domain), recombinant, purified from Sf9 insect cells (UniProt Q01973)
Sequence (Q01973 428-937): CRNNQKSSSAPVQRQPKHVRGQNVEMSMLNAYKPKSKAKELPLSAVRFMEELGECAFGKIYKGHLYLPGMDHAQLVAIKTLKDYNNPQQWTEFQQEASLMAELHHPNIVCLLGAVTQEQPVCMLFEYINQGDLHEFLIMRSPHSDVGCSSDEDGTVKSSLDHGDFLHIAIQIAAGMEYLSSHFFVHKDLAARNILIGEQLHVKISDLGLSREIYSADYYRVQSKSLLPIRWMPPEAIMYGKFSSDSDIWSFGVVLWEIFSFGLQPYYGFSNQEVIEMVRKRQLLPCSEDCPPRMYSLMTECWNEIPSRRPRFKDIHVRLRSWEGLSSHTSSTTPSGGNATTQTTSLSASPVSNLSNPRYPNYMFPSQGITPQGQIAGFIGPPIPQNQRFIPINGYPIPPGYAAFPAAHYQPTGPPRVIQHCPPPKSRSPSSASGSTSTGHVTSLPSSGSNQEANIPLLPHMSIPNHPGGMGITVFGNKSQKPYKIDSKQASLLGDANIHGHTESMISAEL

endogenous c-Src (NCI-H1975, 293T, NCI-H23 cells)
in vitro ROR1 kinase assay, western blot with anti-phospho-c-Src antibody (c-Src immunoprecipitated from NCI-H23 and 293T lysates as substrate): c-Src was phosphorylated by ROR1
